Results on 11 molecules are retold here after patent publication US20240270821A1, “GIP/GLP1/GCG TRI-RECEPTOR AGONISTS AND USES THEREOF” (priority 2023, published 2024).

Numbering of substitutions follows the chain as printed.

The chains are these.
T1: human GIP receptor (human) (UniProt P48546)
T1 sequence (looked up): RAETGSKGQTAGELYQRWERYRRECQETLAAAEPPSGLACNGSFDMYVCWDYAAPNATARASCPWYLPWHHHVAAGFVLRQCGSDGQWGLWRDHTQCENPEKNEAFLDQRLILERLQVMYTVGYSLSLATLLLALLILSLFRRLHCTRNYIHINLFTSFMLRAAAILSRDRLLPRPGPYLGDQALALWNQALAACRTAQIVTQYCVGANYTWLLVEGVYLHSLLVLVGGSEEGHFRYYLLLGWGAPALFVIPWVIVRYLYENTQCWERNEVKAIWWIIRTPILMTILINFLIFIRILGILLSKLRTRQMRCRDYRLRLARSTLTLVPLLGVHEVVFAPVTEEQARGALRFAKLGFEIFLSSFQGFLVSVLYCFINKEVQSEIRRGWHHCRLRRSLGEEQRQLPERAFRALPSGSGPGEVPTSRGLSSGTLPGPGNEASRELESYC

B1: Example 395 (peptide)
chain: YXQGTXTSDYSIXLDKKAQXAFIEYLEEGGPSSGAPPPSEG
modifications: synthetic construct; SITE 2: note = 2-Aminoisobutyric Acid; SITE 6: note = alpha-methyl-L-phenylalanine; SITE 13: note = alpha-methyl-leucine; SITE 17: note = Lysine is chemically modified through conjugation of the epsilon-amino group of the Lysine side chain with (2-[2-(2-Amino-ethoxy)-ethoxy]-ace)
B2: Example 398 (peptide)
chain: B1 chain with X13L
modifications: not fully specified; synthetic construct; SITE 2: note = 2-Aminoisobutyric Acid; SITE 6: note = alpha-methyl-2-fluoro-L-phenylalanine; SITE 17: note = Lysine is chemically modified through conjugation of the epsilon-amino group of the Lysine side chain with (2-[2-(2-Amino-ethoxy)-ethoxy]-acetyl)-(gamma-Glu)-CO-(CH2) 16-
B3: Example 404 (peptide)
chain: B1 chain with K16X, E27L
modifications: synthetic construct; SITE 2: note = 2-Aminoisobutyric Acid; SITE 6: note = alpha-methyl-2-fluoro-L-phenylalanine; SITE 13: note = alpha-methyl-leucine; SITE 16: note = L-ornithine; SITE 17: note = Lysine is chemically modified through conjugation of the epsilon-amino group of the Lysine side chain w
B4: Example 399 (peptide)
chain: B1 chain with X13L, S39E
modifications: synthetic construct; SITE 2: note = 2-Aminoisobutyric Acid; SITE 6: note = alpha-methyl-2-fluoro-L-phenylalanine; SITE 17: note = Lysine is chemically modified through conjugation of the epsilon-amino group of the Lysine side chain with (2-[2-(2-Amino-ethoxy)-ethoxy]-acetyl)-(gamma-Glu)-CO-(CH2) 16-
B5: Example 389 (peptide)
chain: YXQGTXTSDYXSXLDXKAQXXFIEXLLEGGPSSGEPPPE
modifications: synthetic construct; SITE 2: note = 2-Aminoisobutyric Acid; SITE 6: note = alpha-methyl-L-phenylalanine; SITE 11: note = alpha-methyl-L-serine; SITE 13: note = alpha-methyl-leucine; SITE 16: note = L-ornithine; SITE 17: note = Lysine is chemically modified through conjugation of the epsilon-amino gr
B6: Example 390 (peptide)
chain: B5 chain with X13L
modifications: synthetic construct; SITE 2: note = 2-Aminoisobutyric Acid; SITE 6: note = alpha-methyl-L-phenylalanine; SITE 11: note = alpha-methyl-L-serine; SITE 16: note = L-ornithine; SITE 17: note = Lysine is chemically modified through conjugation of the epsilon-amino group of the Lysine side chain with (2-[
B7: Example 402 (peptide)
chain: B5 chain with S12I, L27E
modifications: synthetic construct; SITE 2: note = 2-Aminoisobutyric Acid; SITE 6: note = alpha-methyl-2-fluoro-L-phenylalanine; SITE 11: note = alpha-methyl-L-serine; SITE 13: note = alpha-methyl-leucine; SITE 16: note = L-ornithine; SITE 17: note = Lysine is chemically modified through conjugation of the epsilon
B8: Example 391 (peptide)
chain: B5 chain with S12I, X25Y
modifications: synthetic construct; SITE 2: note = 2-Aminoisobutyric Acid; SITE 6: note = alpha-methyl-L-phenylalanine; SITE 11: note = alpha-methyl-L-serine; SITE 13: note = alpha-methyl-leucine; SITE 16: note = L-ornithine; SITE 17: note = Lysine is chemically modified through conjugation of the epsilon-amino gr
B9: Example 392 (peptide)
chain: YXQGTXTSDYSILLDKKAQXAFIEYLEEGGPSSGAPPPS
modifications: synthetic construct; SITE 2: note = 2-Aminoisobutyric Acid; SITE 6: note = alpha-methyl-L-phenylalanine; SITE 17: note = Lysine is chemically modified through conjugation of the epsilon-amino group of the Lysine side chain with (2-[2-(2-Amino-ethoxy)-ethoxy]-acetyl)-(gamma-Glu)-CO-(CH2) 16-CO2H; SIT
B10: Example 393 (peptide)
chain: B9 chain with S11X
modifications: synthetic construct; SITE 2: note = 2-Aminoisobutyric Acid; SITE 6: note = alpha-methyl-L-phenylalanine; SITE 11: note = alpha-methyl-L-serine; SITE 17: note = Lysine is chemically modified through conjugation of the epsilon-amino group of the Lysine side chain with (2-[2-(2-Amino-ethoxy)-ethoxy]-ac)
B11: Example 394 (peptide)
chain: B9 chain with L13X
modifications: synthetic construct; SITE 2: note = 2-Aminoisobutyric Acid; SITE 6: note = alpha-methyl-L-phenylalanine; SITE 13: note = alpha-methyl-leucine; SITE 17: note = Lysine is chemically modified through conjugation of the epsilon-amino group of the Lysine side chain with (2-[2-(2-Amino-ethoxy)-ethoxy]-ace)

The target of the first assay is hGLP-1R (Homo sapiens, UniProt P43220). In words: cell-based or functional assay.
hGLP-1R, sequence (P43220 24-463): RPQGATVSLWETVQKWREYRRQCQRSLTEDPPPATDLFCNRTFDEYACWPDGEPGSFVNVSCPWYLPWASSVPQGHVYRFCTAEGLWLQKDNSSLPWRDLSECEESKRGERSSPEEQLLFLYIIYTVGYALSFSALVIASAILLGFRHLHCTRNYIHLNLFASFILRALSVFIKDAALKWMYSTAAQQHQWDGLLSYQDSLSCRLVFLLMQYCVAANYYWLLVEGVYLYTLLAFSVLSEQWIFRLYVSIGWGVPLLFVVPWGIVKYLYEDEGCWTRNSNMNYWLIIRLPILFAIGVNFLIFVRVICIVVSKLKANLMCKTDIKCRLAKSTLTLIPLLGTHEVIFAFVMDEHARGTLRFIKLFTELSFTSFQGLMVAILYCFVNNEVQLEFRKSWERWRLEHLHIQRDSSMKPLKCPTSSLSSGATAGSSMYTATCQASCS
On to B1, for which the Relative cAMP EC50 came out at 0.349 nM and the cAMP Rel EC50, nM (1% HSA) was 34.7 nM.

As for B2, the Relative cAMP EC50 came out at 0.186 nM and the cAMP Rel EC50, nM (1% HSA) came out at 42.2 nM.

In turn, B3 came in with a Relative cAMP EC50 of 0.217 nM and a cAMP Rel EC50, nM (1% HSA) of 32.2 nM.

The molecule B4 showed a Relative cAMP EC50 of 0.302 nM and a cAMP Rel EC50, nM (1% HSA) of 42.8 nM.

Regarding B5, the Relative cAMP EC50 was 0.134 nM and the cAMP Rel EC50, nM (1% HSA) came to 18.9 nM.

In turn, B6 gave a Relative cAMP EC50 of 0.134 nM and a cAMP Rel EC50, nM (1% HSA) of 19.6 nM.

Take B7: the Relative cAMP EC50 was 0.725 nM and the cAMP Rel EC50, nM (1% HSA) is 86.6 nM.

On to B8, for which the Relative cAMP EC50 amounted to 0.199 nM and the cAMP Rel EC50, nM (1% HSA) is 34.4 nM.

The molecule B9 had a Relative cAMP EC50 of 0.253 nM and a cAMP Rel EC50, nM (1% HSA) of 41.5 nM.

Molecule B10 displayed a Relative cAMP EC50 of 0.211 nM and a cAMP Rel EC50, nM (1% HSA) of 29.6 nM.

The molecule B11 showed a cAMP Rel EC50, nM (1% HSA) of 33.2 nM.

The next assay concerns the target T1, human GIP receptor (human). Description: cell-based or functional assay.
B1 had a Relative cAMP EC50 of 0.0248 nM and a cAMP Rel EC50, nM (1% HSA) of 6.69 nM.

B2 registered a Relative cAMP EC50 of 0.0318 nM and a cAMP Rel EC50, nM (1% HSA) of 12.4 nM.

B3 gave a Relative cAMP EC50 of 0.0102 nM and a cAMP Rel EC50, nM (1% HSA) of 2.03 nM.

In turn, B4 showed a Relative cAMP EC50 of 0.0413 nM and a cAMP Rel EC50, nM (1% HSA) of 19.6 nM.

As to B5, the Relative cAMP EC50 is 0.0354 nM and the cAMP Rel EC50, nM (1% HSA) was 18.3 nM.

Molecule B6 gave a Relative cAMP EC50 of 0.122 nM and a cAMP Rel EC50, nM (1% HSA) of 37.8 nM.

On to B7, for which the Relative cAMP EC50 is 0.123 nM and the cAMP Rel EC50, nM (1% HSA) stood at 44.9 nM.

B8 displayed a Relative cAMP EC50 of 0.0298 nM and a cAMP Rel EC50, nM (1% HSA) of 11.5 nM.

B9: the Relative cAMP EC50 came to 0.0571 nM and the cAMP Rel EC50, nM (1% HSA) stood at 28.7 nM.

Turning to B10, the Relative cAMP EC50 was determined as 0.0458 nM and the cAMP Rel EC50, nM (1% HSA) was determined as 12.4 nM.

As for B11, the cAMP Rel EC50, nM (1% HSA) was 7.22 nM.

For the next assay, the target named is human glucagon receptor (human) (UniProt P47871). In words: cell-based or functional assay.
human glucagon receptor (human), sequence (P47871 26-477): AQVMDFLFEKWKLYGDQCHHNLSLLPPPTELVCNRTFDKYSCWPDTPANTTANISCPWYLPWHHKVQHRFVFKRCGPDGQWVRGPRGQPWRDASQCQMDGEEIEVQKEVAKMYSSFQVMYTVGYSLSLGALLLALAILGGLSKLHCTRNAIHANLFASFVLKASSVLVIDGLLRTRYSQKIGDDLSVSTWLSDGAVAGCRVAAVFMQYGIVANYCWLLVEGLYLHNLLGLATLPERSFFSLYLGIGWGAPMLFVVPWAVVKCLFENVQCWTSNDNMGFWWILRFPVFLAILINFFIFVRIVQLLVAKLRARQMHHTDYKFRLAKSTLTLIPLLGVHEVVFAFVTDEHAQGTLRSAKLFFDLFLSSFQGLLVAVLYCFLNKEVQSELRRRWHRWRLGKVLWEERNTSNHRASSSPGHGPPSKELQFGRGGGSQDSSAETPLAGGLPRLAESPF
In turn, B1 registered a Relative cAMP EC50 of 5.55 nM and a cAMP Rel EC50, nM (1% HSA) of 1190 nM.

Molecule B2 displayed a Relative cAMP EC50 of 2.16 nM and a cAMP Rel EC50, nM (1% HSA) of 375 nM.

The molecule B3 gave a Relative cAMP EC50 of 4.1 nM and a cAMP Rel EC50, nM (1% HSA) of 735 nM.

B4: the Relative cAMP EC50 is 1.51 nM and the cAMP Rel EC50, nM (1% HSA) was determined as 560 nM.

For B5, the Relative cAMP EC50 was 4.03 nM and the cAMP Rel EC50, nM (1% HSA) amounted to 889 nM.

Consider B6, for which the Relative cAMP EC50 was determined as 3.08 nM and the cAMP Rel EC50, nM (1% HSA) was 549 nM.

Take B7: the Relative cAMP EC50 stood at 5.66 nM and the cAMP Rel EC50, nM (1% HSA) came out at 1030 nM.

Regarding B8, the Relative cAMP EC50 was 3.04 nM and the cAMP Rel EC50, nM (1% HSA) is 808 nM.

Consider B9, for which the Relative cAMP EC50 worked out at 3.02 nM and the cAMP Rel EC50, nM (1% HSA) was found to be 611 nM.

Take B10: the Relative cAMP EC50 is 0.947 nM and the cAMP Rel EC50, nM (1% HSA) is 151 nM.

Regarding B11, the cAMP Rel EC50, nM (1% HSA) is 1090 nM.
